As a reminder, the EC50 is the concentration giving half of the maximal effect. A word on the Kd: it is the constant that tells how readily two partners part at equilibrium. Broadly, the koff is the rate constant with which the complex falls apart. The kon is a measure of how fast the partners come together.

Assay [1] has as its target T1, Human uPAR-His recombinant protein (human, UniProt Q03405 23-303).
T1 construct: Bought protein; also called recombinant human uPAR; recombinant human uPAR protein; not shown: His tag
The assay is described as follows: ELISA, uPAR-His coated, anti-FLAG-HRP detection. On the technique in general: An ELISA detects its analyte on a solid surface through an enzyme-linked reagent.

Another assay concerns the target T2, recombinant uPAR-Biotin (human, UniProt Q03405 23-303, limits assumed, biotin, site not stated).
T2 construct: also called human uPAR (BLItz)
The assay can be described thus: BLItz, uPAR-Biotin on streptavidin biosensor.

For the next assay, the target named is human CD3 protein (human). The assay is described as follows: ELISA, human CD3 protein coated, anti-human IgG1 Fc-HRP detection.
Assay [2] deals with T1, Human uPAR-His recombinant protein. The assay can be described thus: ELISA, recombinant human uPAR coated, anti-human IgG1 Fc-HRP detection.
Procedure: (§1) ELISA: The binding and specificity of VH, VH-Fc, and DbTE to uPAR or CD3 were analyzed by ELISA. uPAR-His protein or CD3 protein was coated at 50 ng/well at 4° C. overnight, then blocked with 5% milk for 1 hours at 37° C. After washing 3 times by 0.05% PBST, 3-fold serially diluted VH and VH-Fc binders were incubated on the plate for 1 hour at 37° C. The binding of VH candidates was detected by anti-FLAG M2-peroxidase (HRP) antibody (Sigma-Aldrich) while VH-Fc or DbTE binding was detected by HRP conjugated goat anti-human IgG1 Fc (Sigma-Aldrich) at 1:1000 dilution. The plates were washed 3 times by 0.05% PBST between each reagent's incubation. Binding activity was detected using 3,3′,5,5′-tetramethylbenzidine (Sigma-Aldrich) and was stopped by TMB stop buffer (ScyTek Laboratories). Absorbance was read at 450 nm.

Procedure for human CD3 protein: as §1
Procedure for recombinant uPAR-Biotin: BLItz: DPBS was used to establish a baseline for 30 s. […] Dissociation was monitored in DPBS for 4 min.

B1: VH 3 (VHH)
VHH: EVQLVESGGGLVQPGGSLRLSCAASGFTFSRYWMSWVRQAPGKALEWIGEINHSGSTNYNPSLKSLVTISRDNSKNTLYLQMNSLRAEDTATYYCARSLVPALSYYYYYGMDVWGQGTTVTVSS
notes: Fully human single VH domain from a phage library, expressed in E. coli; It was purified on Ni-NTA and detected with anti-FLAG, so a His tag and a FLAG tag are implied; also called clone 3; anti-uPAR VH 3
Regarding B1, the EC50 in assay [1] came out at 12.1 nM. In the assay with recombinant uPAR-Biotin, the Kd was 17.1 nM, the koff was determined as 0.0014 s⁻¹ and the kon stood at 79000 M⁻¹ s⁻¹.

B2: DbTE 3 (bispecific antibody, human IgG1)
chain: EVQLVESGGGLVQPGGSLRLSCAASGFTFSRYWMSWVRQAPGKALEWIGEINHSGSTNYNPSLKSLVTISRDNSKNTLYLQMNSLRAEDTATYYCARSLVPALSYYYYYGMDVWGQGTTVTVSSGSGSSGSGSSGSGSSQVQLVQSGGGVVQPGRSLRLSCKASGYTFTRYTMHWVRQAPGKGLEWIGYINPSRGYTNYNQKVKDRFTISRDNSKNTAFLQMDSLRPEDTGVYFCARYYDDHYCLDYWGQGTPVTVSSGGGGSGGGGSGGGGSGGGGSGGGGSGGGGSDIQMTQSPSSLSASVGDRVTITCSASSSVSYMNWYQQTPGKAPKRWIYDTSKLASGVPSRFSGSGSGTDYTFTISSLQPEDIATYYCQQWSSNPFTFGQGTKLQITRGSGSSGDKTHTCPPCPAPEAAGGPSVFLFPPKPKDTLMISRTPEVTCVVVDVSHEDPEVKFNWYVDGVEVHNAKTKPREEQYNSTYRVVSVLTVLHQDWLNGKEYKCKVSNKALGAPIEKTISKAKGQPREPQVYTLPPSRDELTKNQVSLTCLVKGFYPSDIAVEWESNGQPENNYKTTPPVLDSDGSFFLYSKLTVDKSRWQQGNVFSCSVMHEALHNHYTQKSLSLSPGKGSHHHHHH
notes: Single chain: VH 3, linker, humanized OKT3 scFv (VH-(G4S)6-VL), human IgG1 Fc with LALAPG mutations, His tag; also called anti-uPAR DbTE 3; domain-based bispecific T cell engager 3
In the assay with human CD3 protein, B2 yielded an EC50 of 28.8 nM. Besides, the EC50 in assay [2] was 7.7 nM. Also, in the assay with recombinant uPAR-Biotin, the Kd was found to be 6.6 nM, the koff is 0.00072 s⁻¹ and the on-rate constant (kon) was determined as 110000 M⁻¹ s⁻¹.

B3: DbTE 115 (bispecific antibody, human IgG1)
chain: EVQLVESGGGLVQPGGSLRLSCKGSGFTFGDYAIGWVRQAPGQRLEWIGWINTNSGSPKYAQGFTGRFTISRDNSKNTLYLQMNSLRAEDTAVYYCATDVVVPWGQGSQVTVSSGSGSSGSGSSGSGSSQVQLVQSGGGVVQPGRSLRLSCKASGYTFTRYTMHWVRQAPGKGLEWIGYINPSRGYTNYNQKVKDRFTISRDNSKNTAFLQMDSLRPEDTGVYFCARYYDDHYCLDYWGQGTPVTVSSGGGGSGGGGSGGGGSGGGGSGGGGSGGGGSDIQMTQSPSSLSASVGDRVTITCSASSSVSYMNWYQQTPGKAPKRWIYDTSKLASGVPSRFSGSGSGTDYTFTISSLQPEDIATYYCQQWSSNPFTFGQGTKLQITRGSGSSGDKTHTCPPCPAPEAAGGPSVFLFPPKPKDTLMISRTPEVTCVVVDVSHEDPEVKFNWYVDGVEVHNAKTKPREEQYNSTYRVVSVLTVLHQDWLNGKEYKCKVSNKALGAPIEKTISKAKGQPREPQVYTLPPSRDELTKNQVSLTCLVKGFYPSDIAVEWESNGQPENNYKTTPPVLDSDGSFFLYSKLTVDKSRWQQGNVFSCSVMHEALHNHYTQKSLSLSPGKGSHHHHHH
In the case of B3, in the assay with human CD3 protein, the EC50 turned out to be 8.7 nM. In assay [2], the EC50 worked out at 28 nM. Also, in the assay with recombinant uPAR-Biotin, the Kd is 1.2 nM, the off-rate constant (koff) worked out at 4.2e-05 s⁻¹ and the on-rate (kon) worked out at 36000 M⁻¹ s⁻¹.

B4: VH 115 (VHH)
VHH: EVQLVESGGGLVQPGGSLRLSCKGSGFTFGDYAIGWVRQAPGQRLEWIGWINTNSGSPKYAQGFTGRFTISRDNSKNTLYLQMNSLRAEDTAVYYCATDVVVPWGQGSQVTVSS
notes: Fully human single VH domain from a phage library, expressed in E. coli; It was purified on Ni-NTA and detected with anti-FLAG, so a His tag and a FLAG tag are implied
With B4, the concentration for a half-maximal effect (EC50) in assay [1] was 34.2 nM. Further, in the assay with recombinant uPAR-Biotin, the Kd turned out to be 1.7 nM, the koff amounted to 3.6e-05 s⁻¹ and the kon amounted to 21000 M⁻¹ s⁻¹.
